Reference: patent US20230002480A1

Tests used:
Assay in all cases: cell-based or functional assay
[1] = target: HIV-1 Env of pseudovirus 620345.c01 (HIV-1)
[2] = target: HIV-1 Env of pseudovirus ZM53M.PB12 (HIV-1)
[3] = target: HIV-1 Env of pseudovirus HIV-0013095-2.11 (HIV-1)
[4] = target: HIV-1 Env of pseudovirus T278-50 (HIV-1)
[5] = target: HIV-1 Env of pseudovirus CNE53 (HIV-1)
[6] = target: HIV-1 Env of pseudovirus 1056_10_TA11_1826 (HIV-1)
[7] = target: HIV-1 Env of pseudovirus 211-9 (HIV-1)
[8] = target: HIV-1 Env of pseudovirus 191084 B7-19 (HIV-1)
[9] = target: HIV-1 Env of pseudovirus ZM135M.PL10a (HIV-1)
[10] = target: HIV-1 Env of pseudovirus 928-28 (HIV-1)
[11] = target: HIV-1 Env of pseudovirus 6041.v3.c23 (HIV-1)
[12] = target: HIV-1 Env of pseudovirus Q23.17 (HIV-1)
[13] = target: HIV-1 Env of pseudovirus 9004SS_A3_4 (HIV-1)
[14] = target: HIV-1 Env of pseudovirus HIV-16055-2.3 (HIV-1)
[15] = target: HIV-1 Env of pseudovirus 1012_11_TC21_3257 (HIV-1)
[16] = target: HIV-1 Env of pseudovirus T250-4 (HIV-1)
[17] = target: HIV-1 Env of pseudovirus 235-47 (HIV-1)
[18] = target: HIV-1 Env of pseudovirus 249M B10 (HIV-1)
[19] = target: HIV-1 Env of pseudovirus 3817.v2.c59 (HIV-1)
[20] = target: HIV-1 Env of pseudovirus 263-8 (HIV-1)
[21] = target: HIV-1 Env of pseudovirus QH0692.42 (HIV-1)
[22] = target: HIV-1 Env of pseudovirus ZM197M.PB7 (HIV-1)
[23] = target: HIV-1 Env of pseudovirus SC05_8C11_2344 (HIV-1)
[24] = target: HIV-1 Env of pseudovirus 1006_11_C3_1601 (HIV-1)
[25] = target: HIV-1 Env of pseudovirus CNE8 (HIV-1)
[26] = target: HIV-1 Env of pseudovirus PVO.4 (HIV-1)
[27] = target: HIV-1 Env of pseudovirus 6811.v7.c18 (HIV-1)
[28] = target: HIV-1 Env of pseudovirus CNE19 (HIV-1)
[29] = target: HIV-1 Env of pseudovirus BJOX009000.02.4 (HIV-1)
[30] = target: HIV-1 Env of pseudovirus C2101.c01 (HIV-1)
[31] = target: HIV-1 Env of pseudovirus ZM233M.PB6 (HIV-1)
[32] = target: HIV-1 Env of pseudovirus 3365.v2.c2 (HIV-1)
[33] = target: HIV-1 Env of pseudovirus TRJO4551.58 (HIV-1)
[34] = target: HIV-1 Env of pseudovirus Ce1086_B2 (HIV-1)
[35] = target: HIV-1 Env of pseudovirus 3301.v1.c24 (HIV-1)
[36] = target: HIV-1 Env of pseudovirus R1166.c01 (HIV-1)
[37] = target: HIV-1 Env of pseudovirus 3103.v3.c10 (HIV-1)

N49P6 (antibody)
IC50 [1]: 22.9 µg/mL | IC80 [1]: > 50 µg/mL | MPI [1]: 70 | IC50 [2]: 0.538 µg/mL | IC80 [2]: 1.71 µg/mL | MPI [2]: 100 | IC50 [3]: 0.971 µg/mL | IC80 [3]: 8.04 µg/mL | MPI [3]: 96 | IC50 [4]: 25.7 µg/mL | IC80 [4]: > 50 µg/mL | MPI [4]: 67 | IC50 [5]: 0.249 µg/mL | IC80 [5]: 0.871 µg/mL | MPI [5]: 99 | IC50 [6]: 0.209 µg/mL | IC80 [6]: 0.606 µg/mL | MPI [6]: 100 | IC50 [7]: 8.49 µg/mL | IC80 [7]: 27.7 µg/mL | MPI [7]: 93 | IC50 [8]: 0.062 µg/mL | IC80 [8]: 0.257 µg/mL | MPI [8]: 100 | IC50 [9]: 0.494 µg/mL | IC80 [9]: 1.77 µg/mL | MPI [9]: 99 | IC50 [10]: 1.24 µg/mL | IC80 [10]: 5.6 µg/mL | MPI [10]: 99 | IC50 [11]: 5.53 µg/mL | IC80 [11]: 43.2 µg/mL | MPI [11]: 88 | IC50 [12]: 0.052 µg/mL | IC80 [12]: 0.185 µg/mL | MPI [12]: 100 | IC50 [13]: 0.181 µg/mL | IC80 [13]: 0.817 µg/mL | MPI [13]: 100 | IC50 [14]: 0.117 µg/mL | IC80 [14]: 0.586 µg/mL | MPI [14]: 100 | IC50 [15]: 0.137 µg/mL | IC80 [15]: 0.502 µg/mL | MPI [15]: 100 | IC50 [16]: 21.9 µg/mL | IC80 [16]: > 50 µg/mL | MPI [16]: 68 | IC50 [17]: 13 µg/mL | IC80 [17]: 46.4 µg/mL | MPI [17]: 82 | IC50 [18]: 0.122 µg/mL | IC80 [18]: 0.549 µg/mL | MPI [18]: 100 | IC50 [19]: 16.9 µg/mL | IC80 [19]: > 50 µg/mL | MPI [19]: 78 | IC50 [20]: 0.116 µg/mL | IC80 [20]: 0.438 µg/mL | MPI [20]: 100 | IC50 [21]: 0.652 µg/mL | IC80 [21]: 2.28 µg/mL | MPI [21]: 100 | IC50 [22]: 3 µg/mL | IC80 [22]: 12.4 µg/mL | MPI [22]: 98 | IC50 [23]: 0.266 µg/mL | IC80 [23]: 0.911 µg/mL | MPI [23]: 100 | IC50 [24]: 0.068 µg/mL | IC80 [24]: 0.209 µg/mL | MPI [24]: 100 | IC50 [25]: 0.072 µg/mL | IC80 [25]: 0.245 µg/mL | MPI [25]: 100 | IC50 [26]: 0.128 µg/mL | IC80 [26]: 0.357 µg/mL | MPI [26]: 100 | IC50 [27]: 0.238 µg/mL | IC80 [27]: 1.01 µg/mL | MPI [27]: 100 | IC50 [28]: 0.044 µg/mL | IC80 [28]: 0.156 µg/mL | MPI [28]: 100 | IC50 [29]: 0.32 µg/mL | IC80 [29]: 1.46 µg/mL | MPI [29]: 100 | IC50 [30]: 0.14 µg/mL | IC80 [30]: 0.597 µg/mL | MPI [30]: 100 | IC50 [31]: 1.23 µg/mL | IC80 [31]: 4 µg/mL | MPI [31]: 99 | IC50 [32]: 0.129 µg/mL | IC80 [32]: 0.347 µg/mL | MPI [32]: 100 | IC50 [33]: 0.255 µg/mL | IC80 [33]: 0.874 µg/mL | MPI [33]: 100 | IC50 [34]: 0.581 µg/mL | IC80 [34]: 4.09 µg/mL | MPI [34]: 98 | IC50 [35]: 0.054 µg/mL | IC80 [35]: 0.149 µg/mL | MPI [35]: 100 | IC50 [36]: 0.102 µg/mL | IC80 [36]: 0.344 µg/mL | MPI [36]: 100 | IC50 [37]: 0.582 µg/mL | IC80 [37]: 1.57 µg/mL | MPI [37]: 100
